Substitutions are numbered along the chain they refer to.

In patent publication US20250223359A1 one finds Kd data, which are given here for three molecules.

This experiment addresses CD3-Fc. The experiment is described as follows: SPR (Biacore T200, 25 C); CD3-Fc captured on anti-hFc IgG1 CM5 chip, antibody injected in 1:2 dilution series; 1:1 binding model. (Surface plasmon resonance follows binding to a sensor surface in real time, without labels.)

B1: CD3hi anti-CD3 antibody (antibody, V domains shown)
VH: EVQLVESGGGLVQPGGSLKLSCAASGFTFNTYAMNWVRQASGKGLEWVGRIRSKYNNYATYYADSVKDRFTISRDDSKSTLYLQMNSLKTEDTAVYYCVRHGNFGNSYVSWFAYWGQGTLVTVSS
VL: QAVVTQEPSLTVSPGGTVTLTCRSSTGAVTTSNYANWVQQKPGQAPRGLIGGTNKRAPWTPARFSGSLLGDKAALTLSGAQPEDEAEYFCALWYSNLWVFGGGTKLTVL
Regarding B1, the Kd turned out to be 16 nM.

B2: CD3med anti-CD3 antibody (antibody, V domains shown)
VH: B1 VH with S79N, L81A, Y114H
VL: B1 VL with R23G, T31S, D71G, F89Y
B2 came in with a Kd of 30 nM.

B3: CD3lo anti-CD3 antibody (antibody, V domains shown)
VH: B1 VH with L81A
VL: B1 VL
Turning to B3, the Kd turned out to be 48 nM.

A word on the Kd: it is the equilibrium constant for the complex coming apart. Read a high Kd as a looser complex.
